Assay results reported in US9157088B2, “Transferases, epimerases, polynucleotides encoding these and uses thereof” (priority 2007, dated 2015).

Tests used:
[1] = target: T1, kiwifruit GDP-L-Galactose Guanyltransferase EST 319998 (Actinidia chinensis, UniProt A0A2R6QD99); assay: Fixed time transferase assay, aliquots measured by LCMS; assay type: biochemical; conditions: acceptor Mannose-1-P; 0.057 ug protein
Experimental: (§1) The assay for GDP-L-Galactose-1-Phosphate Guanyltransferase was run in 20 mM TrisCl, pH 8.0, GDP-L-Galactose, with 1 mM D-Mannose-1-Phosphate. GDP-L-Galactose was either used directly from the Glycoteam product (in which case high backgrounds were observed due to contaminating L-Galactose-1-Phosphate) or GDP-L-Galactose was generated using the epimerase. In the latter case, 0.21 mg of epimerase was incubated with GDP-D-Mannose in 20 mM Tris Cl pH 8 in a total volume of 400 μL (see Wolucka et al., 2001) for 30 minutes at 20 C and then used directly in the assay at a 1 to 20 dilution. Assays were either terminated after 10 minutes by heating to 100 C for three minutes, or directly coupled to the phosphatase and L-Galactose dehydrogenase to measure product formation during the assay. Heat terminated assays were cooled on ice, centrifuged to remove precipitated protein and L-Galactose assayed using the coupling enzymes described above (see also (Laing et al., 2004)). Assays for L-Galactose were linear with added L-Galactose-1-Phosphate over the range measured. Backgrounds were run using the empty vector control, which gave the same result as a boiled enzyme control.
As an alternative assay, LCMS was used to identify the forward reaction described above as well measure as the reverse pyrophosphorylase reaction where GTP (1 mM) and L-Galactose-1-Phosphate were incubated as above and the formation of GDP-L-Galactose followed. GDP-D-Mannose and GDP-L-Galactose were separated by HPLC before MS. LC-MS employed an LTQ linear ion trap mass spectrometer fitted with an ESI interface (ThermoQuest, Finnigan, San Jose, Calif., USA) coupled to an EttanTM MDLC (GE Healthcare Bio-Sciences). Separation of GDP-D-Mannose and GDP-L-Galactose was achieved using a Hypercarb column (Thermo Electron, USA), 100×2.1 mm maintained at 40 C. Solvents were (A) 50 mM ammonium acetate and (B) acetonitrile and the flow rate was 200 uL/min. The initial mobile phase, 5% B was held for 3 min, then ramped linearly to 20% B at 11 min, held for 5 min, then ramped linearly to 70% B at 19 min and held for 5 min before resetting to the original conditions. Retention times for GDP-D-Mannose and GDP-L-Galactose were 16.8 min and 17.5 min, respectively.
MS data was acquired in the negative mode using both a selective reaction monitoring (SRM) method SRM m/z 604>m/z 344, 362, 424, 442 and a selected ion monitoring (SIM) method SIM m/z 604. This SIM method monitors only the (M-H)— ion for GDP-D-Mannose and GDP-L-Galactose while the SRM method monitors the distinctive daughter ions formed by fragmenting the precursor ion (M-H)— for both compounds. Both methods maximise sensitivity by screening out any chemical noise from other compounds present. The ESI voltage, capillary temperature, sheath gas pressure, sweep gas and auxiliary gas were set at −10 V, 350° C., 25 psi, 3 psi, and 3 psi, respectively. Separation of D-Mannose-1-Phosphate and L-Galactose-1-Phosphate was achieved isocratically using a Hypercarb column (Thermo Electron, USA), 100×2.1 mm maintained at 40° C. Solvents were (A) 20 mM ammonium acetate and (B) methanol and the flow rate was 200 uL/min. Using a mobile phase of 2% B the retention times for D-Mannose-1-Phosphate and L-Galactose-1-Phosphate were 4.3 min and 4.9 min, respectively. MS data was acquired in the negative mode using both a selective reaction monitoring (SRM) method SRM m/z 259>m/z 79, 97 and a selected ion monitoring (SIM) method SIM m/z 259. […]

[2] = target: T1, kiwifruit GDP-L-Galactose Guanyltransferase EST 319998; assay: Fixed time transferase assay, aliquots measured using coupling enzymes; assay type: biochemical; conditions: acceptor Mannose-1-P; 0.057 ug protein
Experimental: as §1, with “Heat terminated assays were cooled on ice, centrifuged to remove precipitated protein and L-Galactose assayed using the coupling enzymes described above (see also (Laing et al., 2004)).” left out, “Backgrounds were run using the empty vector control, which gave the same result as a boiled enzyme control.” left out
(§2) The applicants used two assays to characterise the enzyme, using two sources of the substrate GDP-L-Galactose. […] The applicants either measured the product formed by adding the coupling enzymes in the assay and measuring the time course of NADH formed, or by stopping the reaction after 10 minutes by boiling for 3 minutes and centrifuging. […]

[3] = assay type: physicochemical
Description: GDP-L-Galactose (˜50% pure, contaminated with the breakdown products GDP and L-Galactose-1-Phosphate as shown by HPLC and LCMS) and L-Galactose-1-Phosphate were purchased from Glycoteam, Hamburg, Germany. […] Other biochemicals were purchased from Sigma.

Arabidopsis plants = assay: Leaf ascorbate in stably transformed Arabidopsis plants; assay type: in vivo, Arabidopsis thaliana; conditions: third generation, kanamycin resistant plants; FIGS. 20A-20B
Experimental: In the second generation, up to 12 plants from each line, selected from the kanamycin plates, were grown to a standard size of a complete rosette of leaves in the glasshouse and ascorbate measured (FIG. 19). […] The increased ascorbate ranged up to over 4 times the normal level of ascorbate in Arabidopsis leaves.
Selected plants from the second generation were taken on to the next generation. […] Again the applicants observed plants with leaf ascorbate over 4 times the control level (FIGS. 20A-20B), but again within a line with high ascorbate progeny, there were always plants with high and low ascorbate in spite of all plants coming from a high ascorbate kanamycin resistant parent. […] Regions of complete sequence identity are found, when the 319998 and Arabidopsis sequence is aligned (data not shown). This could account for the apparent silencing seen.

[4] = Transferase activity of E. coli expressed enzymes (coupled reaction and LCMS); assay type: biochemical; conditions: enzyme expressed in E. coli, His tag purified
Experimental: Expression of genes in E. coli. The EST 319998 from young fruit of Actinidia chinensis and At4g26850 were each cloned into pET30A (Novagene, USA), their sequence checked and expressed in E. coli. The N terminal His6 tag was used to purify the protein. An empty vector control was expressed and purified in parallel. Techniques were essentially as described earlier (Laing et al., 2004). In much of this work the His-protein was further purified on a 5 mL HiTrap Q FF column (GE Healthcare), and identical results were obtained with both preparations.
as §1, with “control. […]” for “control.”
as §2

[5] = substrate: O=P(O)(O)O[C@H]1O[C@H](CO)[C@@H](O)[C@H](O)[C@@H]1O; assay: purified protein, by the assay type; conditions: other: varying concentrations of the guanyl acceptor; continuous coupled assay; FIG. 3; pH 8.0; 20.0 °C
Experimental: The assay for GDP-L-Galactose-1-Phosphate Guanyltransferase was run in 20 mM TrisCl, pH 8.0, GDP-L-Galactose, with 1 mM D-Mannose-1-Phosphate. GDP-L-Galactose was either used directly from the Glycoteam product (in which case high backgrounds were observed due to contaminating L-Galactose-1-Phosphate) or GDP-L-Galactose was generated using the epimerase. In the latter case, 0.21 mg of epimerase was incubated with GDP-D-Mannose in 20 mM Tris Cl pH 8 in a total volume of 400 μL (see Wolucka et al., 2001) for 30 minutes at 20 C and then used directly in the assay at a 1 to 20 dilution. Assays were either terminated after 10 minutes by heating to 100 C for three minutes, or directly coupled to the phosphatase and L-Galactose dehydrogenase to measure product formation during the assay. […] Assays for L-Galactose were linear with added L-Galactose-1-Phosphate over the range measured.

[6] = tested on: Tobacco (Nicotiana benthamiana) leaves; assay: Leaf ascorbate after transient transformation of tobacco leaves; assay type: in vivo
Description: (§3) Tobacco (Nicotiana benthamiana) was transiently transformed with Agrobacterium containing the kiwifruit gene for GDP-L-Galactose Guanyltransferase (EST 319998) cloned in pGreen (Hellens et al., 2000) mixed with Agrobacterium containing the gene for the silencing suppressor P19 as previously described (Hellens et al., 2005). Controls were run using Agrobacterium containing P19 in pGreen alone. Tobacco leaves were harvested 9 days after transformation and frozen in liquid nitrogen.
Ascorbate was extracted as described previously in metaphosphoric acid without reducing agent (Davey et al., 2003; Rassam and Laing, 2005). […]

[7] = tested on: Tobacco (Nicotiana benthamiana) leaves; assay: Transferase activity in extracts of transiently transformed tobacco leaves; assay type: in vivo; conditions: transient expression in pGreen mixed with P19
Experimental: The transferase activity in tobacco leaves was measured by extracting liquid nitrogen ground leaves in approximately five volumes of TrisCI pH 8.0, 2 mM DTT and 1 mM EDTA, centrifuging, desalting the supernatant using a NAP desalting column equilibrated with the same buffer and assaying the enzyme using the coupled assay described above. Protein in the extracts was measured using the Biorad Bradford Coumassie assay (Bradford, 1976) using BSA as a standard.
as §3

[8] = tested on: Nicotiana tabacum ‘Samsun’; assay: Leaf ascorbate in stably transformed tobacco; assay type: in vivo; conditions: two kanamycin resistant lines; FIG. 22
Experimental: Tobacco was transformed with 319998 and Kanamycin resistant lines selected. These plants were transferred to soil and grown until several leaves were expanded. Ascorbate and gene expression was measured in these leaves (FIG. 22).
Nicotiana tabacum ‘Samsun’ was transformed using Agrobacterium tumefaciens strain GV101 carrying the pHex vector containing EST 319998. Methods used were as described by Guerineau et al (1990), except kanamycin was used instead of sulphonamide selective agents at the rate of 100 mg.L-1.

Molecule	transferase activity, LCMS [1]	transferase activity, Coupled assay [2]	acid stability [3]	leaf ascorbate relative to the control level (Arabidopsis plants)	GDP-L-Galactose Guanyltransferase activity of the expressed enzyme [4]	Km [5]	effect on leaf ascorbate ([6]; His tag in front of the transferase sequence in pGreen, FIGS. 17A-17B)	function of construct in raising leaf ascorbate ([6]; transferase cloned into pGreenII 0229 62-SK (bialaphos resistance), FIGS. 17A-17B)	effect on leaf ascorbate ([6]; transient expression with P19)	increase in leaf ascorbate compared to control leaves ([6]; transient expression with P19, listed as 319998)	effect on leaf ascorbate ([6]; transient expression with P19, listed as 319998_Ac)	increase in leaf ascorbate compared to control leaves ([6]; transient expression with P19, listed as transferase)	Leaf ascorbate levels, average ([6]; transient expression with P19, mean of three plants, three leaves per plant, harvested 9 days after transformation)	Relative amount of ascorbate ([6]; transient expression with P19, relative to controls)	GDP-L-Galactose Guanyltransferase activity in leaf extract [7]	increase in leaf ascorbate [8]
Nc1nc2c(ncn2[C@@H]2O[C@H](COP(=O)(O)OP(=O)(O)OC3O[C@@H](CO)[C@@H](O)[C@@H](O)[C@@H]3O)[C@@H](O)[C@H]2O)c(=O)[nH]1 (stereo partly drawn) [GDP-L-Galactose]	high BG	0.017 nmoles/sec/ug protein	extremely acid labile	–	–	–	–	–	–	–	–	–	–	–	–	–
kiwifruit GDP-L-Galactose Guanyltransferase EST 319998 (Actinidia chinensis var. chinensis) (protein) MLKIKRVPTVVSNFQKDEAEDGARSGGGCGRNCLQKCCIQGAKLPLYAFKRVKEVVGEKGLLAVDDEEAPVAFLDSLLLGEWEDRVQRGLFRYDVTACETKVIPGEYGFIAQLNEGRHLKKRPTEFRVDKVLQPFDESKFNFTKVGQEEVLFQFEASDDNEVQFFPNAPVDVENSPSVVAINVSPIEYGHVLLIPRILECLPQRIDRESFLLALHMAAEAGNPYFRLGYNSLGAFATINHLHFQAYYLAVPFPIEKAPTRKITTLNGGVKISDLLNYPVRGLVFEGGNSLEDLSNAVSDSSICLQGNNIPYNVLISDSGKCIFLLPQCYAEKQALGEVSSDLLDTQVNPAVWEISGHMVLKRKEDYEEASEGNAWRLLAEVSLSEERFEEVKALIFEAISCADDRSGSTAENLLEEPDDNPQSRKVANDALNKGSHRGMVPGKQECLVQH	–	–	–	over 4 times	could catalyse the conversion of GDP-L-Galactose to L-Galactose-1-P	110 ± 30 µM	active in increasing leaf ascorbate	fully functional	usually was the most effective gene	three fold increase in ascorbate	increased ascorbate levels in the leaf	~3 fold	102.0	3.0	measurable activity could be measured in the extract of the leaves	60%
